Patent US9029508 (dated 2015)

B1: DVD514 DLL4 arm (antibody, V domains shown)
VH: EVQLQQSGPELEKPGASVKISCKASGYSFTGYNMNWVKQSNGKSLEWIGNIDPYFGGTNYNQKFKGKATLTVDKSSSTAYMQLKSLTSEDSAVYYCARNYDYDGGCFDYWGQGTTLTVSS
VL: QAVVTQESALTTSPGETVTLTCRSSTGAVTTSNYANWVQEKPDHLFTGLIGGTNNRAPGVPARFSGSLIGDKAALTITGAQTEDEAIYFCALWYSNHWVFGGGTKLTVLG
modifications: DVD-Ig inner
B2: DVD527 DLL4 arm (antibody, V domains shown)
VH: B1 VH
VL: B1 VL
modifications: DVD-Ig outer
B3: DVD520 DLL4 arm (antibody, V domains shown)
VH: B1 VH
VL: B1 VL
modifications: DVD-Ig inner
B4: DVD534 DLL4 arm (antibody, V domains shown)
VH: B1 VH
VL: B1 VL
modifications: DVD-Ig inner
B5: DVD522 DLL4 arm (antibody, V domains shown)
VH: B1 VH
VL: B1 VL
modifications: DVD-Ig inner
B6: DVD513 DLL4 arm (antibody, V domains shown)
VH: B1 VH
VL: B1 VL
modifications: DVD-Ig outer
B7: DVD451 DLL4 arm (antibody, V domains shown)
VH: QVQLVQSGAEVKKPGASVKISCKASGYSFTAYYIHWVKQAPGQGLEWIGYISSYNGATNYNQKFKGRVTFTTDTSTSTAYMELRSLRSDDTAVYYCARDYDYDVGMDYWGQGTLVTVSS
VL: DIVMTQSPDSLAVSLGERATISCRASESVDNYGISFMKWFQQKPGQPPKLLIYAASNQGSGVPDRFSGSGSGTDFTLTISSLQAEDVAVYYCQQSKEVPWTFGGGTKVEIKR
modifications: DVD-Ig outer
B8: DVD453 DLL4 arm (antibody, V domains shown)
VH: B7 VH
VL: B7 VL
modifications: DVD-Ig outer
B9: DVD457 DLL4 arm (antibody, V domains shown)
VH: B7 VH
VL: B7 VL
modifications: DVD-Ig outer
B10: DVD448 DLL4 arm (antibody, V domains shown)
VH: B7 VH
VL: B7 VL
modifications: DVD-Ig inner
B11: DVD444 DLL4 arm (antibody, V domains shown)
VH: B7 VH
VL: B7 VL
modifications: DVD-Ig inner
B12: DVD463 DLL4 arm (antibody, V domains shown)
VH: B7 VH
VL: B7 VL
modifications: DVD-Ig outer
B13: DVD446 DLL4 arm (antibody, V domains shown)
VH: B7 VH
VL: B7 VL
modifications: DVD-Ig inner
B14: DVD459 DLL4 arm (antibody, V domains shown)
VH: B7 VH
VL: B7 VL
modifications: DVD-Ig outer
B15: DVD455 DLL4 arm (antibody, V domains shown)
VH: B7 VH
VL: B7 VL
modifications: DVD-Ig outer
B16: DVD490 DLL4 arm (antibody, V domains shown)
VH: EVQLQQSGPELVKPGASVKMSCKASGYTFTSYVINWVKQKPGQGLEWIGLINPYNDGTKYNEKFKVKATLTSDKSSSTAYMELSSLTSEDSAVYYCASYYYGSRYYFDYWGQGTTLTVSS
VL: DIQMTQSSSYLSVSLGGRVTITCKASDHINNWLAWYQQKPGNAPRLLISGATSLETGVPSRFSGSGSGKDYTLSITSLQTEDVATYYCQQYWSIPLTFGAGTKLELKR
modifications: DVD-Ig inner
B17: DVD495 DLL4 arm (antibody, V domains shown)
VH: B16 VH
VL: B16 VL
modifications: DVD-Ig outer
B18: DVD508 DLL4 arm (antibody, V domains shown)
VH: B16 VH
VL: B16 VL
modifications: DVD-Ig inner
B19: DVD500 DLL4 arm (antibody, V domains shown)
VH: B16 VH
VL: B16 VL
modifications: DVD-Ig inner
B20: DVD507 DLL4 arm (antibody, V domains shown)
VH: B16 VH
VL: B16 VL
modifications: DVD-Ig outer
B21: DVD473 DLL4 arm (antibody)
chain 1: EVQLVESGGGLVQPGGSLRLSCAASGFTFTDNWISWVRQAPGKGLEWVGYISPNSGFTYYADSVKGRFTISADTSKNTAYLQMNSLRAEDTAVYYCARDNFGGYFDYWGQGTLVTVSS
chain 2: DIQMTQSPSSLSASVGDRVTITCRASQDVSTAVAWYQQKPGKAPKLLIYSASFLYSGVPSRFSGSGSGTDFTLTISSLQPEDFATTYYCQQSYTGTVTFGQGTKVEIKR
modifications: DVD-Ig outer
B22: DVD475 DLL4 arm (antibody)
chain 1: B21 chain 1
chain 2: B21 chain 2
modifications: DVD-Ig outer
B23: DVD472 DLL4 arm (antibody)
chain 1: B21 chain 1
chain 2: B21 chain 2
modifications: DVD-Ig inner
B24: DVD474 DLL4 arm (antibody)
chain 1: B21 chain 1
chain 2: B21 chain 2
modifications: DVD-Ig inner
B25: DVD482 DLL4 arm (antibody)
chain 1: B21 chain 1
chain 2: B21 chain 2
modifications: DVD-Ig inner

Each binder was assayed against DLL4 (human, UniProt Q9NR61) (assay: ELISA).
DLL4, sequence (Q9NR61 27-524): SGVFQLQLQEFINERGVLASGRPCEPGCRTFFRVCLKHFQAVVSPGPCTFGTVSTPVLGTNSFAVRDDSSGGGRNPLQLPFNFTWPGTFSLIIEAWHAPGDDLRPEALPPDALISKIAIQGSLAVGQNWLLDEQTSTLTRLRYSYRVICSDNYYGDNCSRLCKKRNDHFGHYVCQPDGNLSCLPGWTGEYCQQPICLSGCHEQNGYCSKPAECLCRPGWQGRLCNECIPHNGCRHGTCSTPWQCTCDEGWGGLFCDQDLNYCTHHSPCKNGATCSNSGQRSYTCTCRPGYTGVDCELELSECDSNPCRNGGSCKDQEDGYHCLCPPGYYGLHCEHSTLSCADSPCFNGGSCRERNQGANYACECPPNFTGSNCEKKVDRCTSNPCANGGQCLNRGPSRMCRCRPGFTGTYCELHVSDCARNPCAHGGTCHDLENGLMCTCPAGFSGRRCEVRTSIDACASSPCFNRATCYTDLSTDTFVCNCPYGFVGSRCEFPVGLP

Compared with B1, B2 is 100-fold lower in EC50: 21000 pM for the first, 200 pM for the second. The second is the more potent here.

Going from B3 to B4, the EC50 falls from 17300 pM to 470 pM (37-fold). The second is the more potent here.

B5 and B6 are within 1.5-fold of each other in EC50: 480 pM for the first, 660 pM for the second.

First: B7
Second: B8
The EC50 of the first is 4.4-fold higher: 400 pM for the first, 90 pM for the second. The second is the more potent here.

First: B9
Second: B10
The EC50 of the first is 3.2-fold lower: 130 pM for the first, 410 pM for the second. The first is the more potent here.

First: B11
Second: B12
The EC50 of the first is 61-fold higher: 30500 pM for the first, 500 pM for the second.

Compared with B13, B14 is 53-fold lower in EC50: 13900 pM for the first, 260 pM for the second.

Going from B15 to B16, the EC50 rises from 240 pM to 9270 pM (39-fold). The first is the more potent here.

Going from B17 to B18, the EC50 rises from 330 pM to 610 pM (1.8-fold).

B19 and B20 are within 1.5-fold of each other in EC50: 570 pM for the first, 710 pM for the second.

First: B21
Second: B22
The EC50 of the first is 7.8-fold higher: 1800 pM for the first, 230 pM for the second. The second is the more potent here.

First: B23
Second: B24
The EC50 of the first is 4.9-fold higher: 2780 pM for the first, 570 pM for the second. The second is the more potent here.

B25 gave an EC50 of 360 pM.
